From patent publication US7098001B2, “Polypeptides having dipeptidyl aminopeptidase activity and nucleic acids encoding same” (Novozymes, Inc., priority 1997, dated 2006)

Experiments:
[1] = pH optimum / pH-activity profile of dipeptidyl aminopeptidase I with Ala-Pro-pNA; format: biochemical; details: for Average Activty: 2 mg/ml Ala-Pro-pNA, ambient temperature, 5 minutes; for Avg. Activity-Background: corrected for autohydrolysis of Ala-Pro-pNA
Procedure: The Ala-Pro-pNA substrate was prepared by dissolving 100 mg of Ala-Pro-pNA in 1 ml of DMSO and adding 20 μl of the Ala-Pro-pNA-DMSO solution to 980 μl of the universal buffer at the various pH values at ambient temperature. The assay was initiated by adding a 10 μl aliquot of the dipeptidyl aminopeptidase I diluted 20-fold in water to 200 μl of 2 mg/ml Ala-Pro-pNA at the various pH values. The absorbance at 405 nm was monitored for 5 minutes. Autohydrolysis of the substrate as a control was determined by adding 10 μl of water to 200 μl of 2 mg/ml Ala-Pro-pNA at the various pH values.

[2] = temperature stability of dipeptidyl aminopeptidase I; format: physicochemical; details: for Percent activity relative to 37iC.: 20 minutes, pH 7.5, no substrate, assayed with Ala-Pro-pNA
Procedure: The temperature stability of the dipeptidyl aminopeptidase I was determined using the following protocol: 490 μl of 50 mM sodium phosphate buffer pH 7.5 was preincubated at 37 ? , 45 ? , 55 ? , 60 ? , 65 ? , 70 ? , and 75 ? C for 30 minutes in a 1.7 ml Eppendorf tube. Then 10 μl of purified dipeptidyl aminopeptidase I was added and the sample was then incubated for an additional 20 minutes. The samples were then placed on ice. Once the incubations were completed for all the temperatures, the samples were then assayed for activity using Ala-Pro-pNA as substrate.
The assay was performed by mixing 30 μl of the incubation mixtures for the various temperatures with 200 μl of 2 mg/ml Ala-Pro-pNA in 50 mM sodium phosphate pH 7.5 buffer) at ambient temperature. The absorbance at 405 nm was monitored for 5 minutes.

[3] = synergism of aminopeptidase I and dipeptidyl aminopeptidase I on Ala-Phe-Pro-pNA; format: biochemical; details: 100-fold diluted enzyme alone, over 10 minutes
Procedure: The substrate was prepared by dissolving 2 mg of Ala-Phe-Pro-pNA (Bachem, Torrance, Calif.) in 20 μl of DMSO. Then, 980 μl of 50 mM sodium phosphate buffer pH 7.5 and 100 μl of ethanol were added. In a 96 well microtiter plate, 100 μl of the Ala-Phe-Pro-pNA solution was added to 100 μl of 100-fold diluted aminopeptidase I (Example 12); 100 μl of the Ala-Phe-Pro-pNA solution was added to 100 μl of 100-fold diluted dipeptidyl aminopeptidase I (Example 11); and 100 μl of the Ala-Phe-Pro-pNA solution was added to a mixture of 50 μl of 100-fold diluted aminopeptidase I and 50 μl of 100-fold diluted dipeptidyl aminopeptidase I. The absorbance at 405 nm was measured for 10 minutes.

[4] = test system: gelatin, soy bean meal tablets, wheat gluten, and sodium-caseinate; experiment: degree of hydrolysis (DH) assays, OPA method; format: biochemical; details: 0.125 mg added to FLAVOURZYME 3 mg and ALCALASE 3 mg; 50 C, 18 hours; all proteins tested
Procedure: The degree of hydrolysis (DH) assays were performed at 50 ? C for 18 hours as a mini-hydrolysis on a 10 ml scale using gelatin, soy bean meal tablets, wheat gluten, and sodium-caseinate at a 2% concentration adjusted to pH 7, if necessary, with no pH adjustment during hydrolysis. The hydrolyses were inactivated at 85 ? C for 3 minutes in a waterbath. The enzymes used were FLAVOURZYME™ with ALCALASE™ 2.4L (Novo Nordisk A/S, Bagsvrd, Denmark) and dipeptidyl aminopeptidase I with FLAVOURZYME™ and ALCALASE™ 2.4L. FLAVOURZYME™, ALCALASE™, and dipeptidyl aminopeptidase I were dosed at 3 mg, 3 mg, 0.125 mg, respectively, per 200 mg of protein per ml.
The DH, as defined by Adler-Nissen (1986, Enzymic Hydrolysis of Food Proteins, Elsevier Applied Science Publishers), was determined by reaction of the supernatant with OPA (ortho-phtaldialdehyde, Sigma Chemical Co., St. Louis, Mo.). […]
A volume of 25 μl of suitably diluted supernatant was mixed with 200 μl of OPA reagent in a microtiter plate well and allowed to react for exactly 2 minutes at 25 ? C The absorbance at 340 nm was measured in a microtiter plate reader and compared to the absorbance of a […] L-serine standard solution after subtraction of the blank value (water reacted with OPA-reagent). […] The degree of hydrolysis was calculated on basis of the total amount of protein in the hydrolysis mixture (not on basis of soluble protein).

pH of optimal activity ([1]; Ala-Pro-pNA as substrate): ~8.7
pH range over which activity toward Ala-Pro-pNA was possessed ([1]; measured pH range): 4.35 to 9.83
Average Activty ([1]; pH 4.35): 8.75 mOD/min
Avg. Activity-Background ([1]; pH 4.35): 8.75 mOD/min
Relative Activty ([1]; pH 4.35, relative to pH 8.71): 0.023
Average Activty ([1]; pH 4.87): 32.5 mOD/min
Avg. Activity-Background ([1]; pH 4.87): 32.5 mOD/min
Relative Activty ([1]; pH 4.87, relative to pH 8.71): 0.088
Average Activty ([1]; pH 5.36): 75.75 mOD/min
Avg. Activity-Background ([1]; pH 5.36): 75.75 mOD/min
Relative Activty ([1]; pH 5.36, relative to pH 8.71): 0.20
Average Activty ([1]; pH 5.86): 113.8 mOD/min
Avg. Activity-Background ([1]; pH 5.86): 113.8 mOD/min
Relative Activty ([1]; pH 5.86, relative to pH 8.71): 0.307
Average Activty ([1]; pH 6.38): 135.48 mOD/min
Avg. Activity-Background ([1]; pH 6.38): 135.48 mOD/min
Relative Activty ([1]; pH 6.38, relative to pH 8.71): 0.365
Average Activty ([1]; pH 6.85): 168.45 mOD/min
Avg. Activity-Background ([1]; pH 6.85): 166.45 mOD/min
Relative Activty ([1]; pH 6.85, relative to pH 8.71): 0.45
Average Activty ([1]; pH 7.2): 188.86 mOD/min
Avg. Activity-Background ([1]; pH 7.2): 186.86 mOD/min
Relative Activty ([1]; pH 7.2, relative to pH 8.71): 0.503
Average Activty ([1]; pH 7.51): 230.97 mOD/min
Avg. Activity-Background ([1]; pH 7.51): 227.97 mOD/min
Relative Activty ([1]; pH 7.51, relative to pH 8.71): 0.615
Average Activty ([1]; pH 7.97): 308.52 mOD/min
Avg. Activity-Background ([1]; pH 7.97): 302.72 mOD/min
Relative Activty ([1]; pH 7.97, relative to pH 8.71): 0.817
Relative Activty ([1]; pH 8.71): 1
Average Activty ([1]; pH 8.71): 383.15 mOD/min
Avg. Activity-Background ([1]; pH 8.71): 370.65 mOD/min
Average Activty ([1]; pH 9.32): 247.68 mOD/min
Avg. Activity-Background ([1]; pH 9.32): 217.88 mOD/min
Relative Activty ([1]; pH 9.32, relative to pH 8.71): 0.588
Average Activty ([1]; pH 9.83): 171 mOD/min
Avg. Activity-Background ([1]; pH 9.83): 97 mOD/min
Relative Activty ([1]; pH 9.83, relative to pH 8.71): 0.261
activity on Ala-Phe-Pro-pNA [3]: no activity
increase of the degree of hydrolysis above FLAVOURZYME and ALCALASE alone [4]: 5%
B1: dipeptidyl aminopeptidase I: Recombinant Aspergillus oryzae 1568 (ATCC 20386) dipeptidyl aminopeptidase I, 771 amino acids (SEQ ID NO:2), produced in Fusarium and purified (protein, listed as Aspergillus oryzae)
chain: MKYSKLLLLLVSVVQALDVPRKPHAPTGEGSKRLTFNETVVKQAITPTSRSVQWLSGAEDGSYVYAAEDGSLTIENIVTNESRTLIPADKIPTGKEAFNYWIHPDLSSVLWASNHTKQYRHSFFADYYVQDVESLKSVPLMPDQEGDIQYAQWSPVGNTIAFVRENDLYVWDNGTVTRITDDGGPDMFHGVPDWIYEEEILGDRYALWFSPDGEYLAYLSFNETGVPTYTVQYYMDNQEIAPAYPWELKIRYPKVSQTNPTVTLSLLNIASKEVKQAPIDAFESTDLIIGEVAWLTDTHTTVAAKAFNRVQDQQKVVAVDTASNKATVISDRDGTDGWLDNLLSMKYIGPIKPSDKDAYYIDISDHSGWAHLYLFPVSGGEPIPLTKGDWEVTSILSIDQERQLVYYLSTQHHSTERHLYSVSYSTFAVTPLVDDTVAAYWSASFSANSGYYILTYGGPDVPYQELYTTNSTKPLRTITDNAKVLEQIKDYALPNITYFELPLPSGETLNVMQRLPPGFSPDKKYPILFTPYGGPGAQEVTKRWQALNFKAYVASDSELEYVTWTVDNRGTGFKGRKFRSAVTRQLGLLEAEDQIYAAQQAANIPWIDADHIGIWGWSFGGYLTSKVLEKDSGAFTLGVITAPVSDWRFYDSMYTERYMKTLSTNEEGYETSAVRKTDGFKNVEGGFLIQHGTGDDNVHFQNSAALVDLLMGDGVSPEKLHSQWFTDSDHGISYHGGGVFLYKQLARKLYQEKNRQTQVLMHQWTKKDLEE
Percent activity relative to 37iC. ([2]; 37 C): 100%
Percent activity relative to 37iC. ([2]; 45 C): 103%
Percent activity relative to 37iC. ([2]; 55 C): 103%
Percent activity relative to 37iC. ([2]; 65 C): 92.5%
Percent activity relative to 37iC. ([2]; 70 C): 37.7%
Percent activity relative to 37iC. ([2]; 75 C): 0.7%
activity retained ([2]; after a 20 minute incubation at 65 C, pH 7.5): 90%
